US20260132208A1 (DOMAIN THERAPEUTICS, published 2026)
“And” between values parts separate entries of the source, which are not always exact repeats. Equal values may be shown once.

Key:
[1] = target: T1, human CCR8 (human, UniProt P51685 1-355); test: cell-based or functional assay
[2] = target: T1, human CCR8; test: cell-based or functional assay; remark: listed apart in the source
[3] = target: T1, human CCR8; test: flow cytometry, inhibition of hCCL1-AF647 (10 nM) binding to hCCR8-CHO cells
Summary of the method: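 hCCR8-transfected CHO cells preincubated 30 min at 4 °C with anti-CCR8 mAb (8 concentrations, top 10 μg/mL, 1/3 dilutions), washed, then exposed to labelled CCL1. Bound CCL1 quantified by flow cytometry; IC₅₀ of binding blockade from sigmoidal variable-slope fit.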

[4] = target: T1, human CCR8; test: cell-based or functional assay; remark: listed apart in the source
[5] = target: T1, human CCR8; test: flow cytometry, hCCR8-transfected CHO-K1 cells
Summary of the method: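 Bound mAb was detected with Alexa Fluor 488 anti-mouse IgG or PE anti-human IgG Fc by flow cytometry, with isotype controls. EC50 came from a four-parameter fit.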

[6] = target: T2, pm5 (Y15 and Y17 sulfated; Y16 not sulfated); test: ELISA on coated peptide [cont.]
T2 construct: also called sulfated CCR8 N-terminal peptide pm5
T2 sequence (peptide, as listed by the source): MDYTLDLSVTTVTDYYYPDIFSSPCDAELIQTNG
Summary of the method: (§1)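 Optical density after 15 min TMB development is the read-out, correlated with antibody binding to the coated peptide. Plates carried peptide at 500 ng/ml in carbonate/bicarbonate buffer. Antibodies were incubated at 1 μg/mL and at a tenfold dilution for 90 min at room temperature, followed by washes.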

[7] = target: T3, pm1 (sulfated tyrosine(s) among Y15, Y16, Y17; which ones is not told (the underlining of Table 1 is lost in the text)); test: ELISA on coated peptide [cont.]
T3 construct: also called sulfated CCR8 N-terminal peptide pm1
T3 sequence (peptide, as listed by the source): as above
Summary of the method: as §1

[8] = target: T4, pwt1 (none (unmodified peptide)); test: ELISA on coated peptide [cont.]
T4 construct: also called unmodified CCR8 N-terminal peptide
T4 sequence (peptide, as listed by the source): as above
Summary of the method: as §1

[9] = target: T5, pm4 (sulfated tyrosine(s) among Y15, Y16, Y17; which ones is not told (the underlining of Table 1 is lost in the text)); test: ELISA on coated peptide [cont.]
T5 construct: also called sulfated CCR8 N-terminal peptide pm4
T5 sequence (peptide, as listed by the source): as above
Summary of the method: as §1

[10] = target: T6, pm8 (Y15, Y16 and Y17 sulfated); test: ELISA on coated peptide [cont.]
T6 construct: also called sulfated CCR8 N-terminal peptide pm8
T6 sequence (peptide, as listed by the source): as above
Summary of the method: as §1

[11] = target: T7, pm3 (Y17 sulfated; Y15 and Y16 not sulfated); test: ELISA on coated peptide [cont.]
T7 construct: also called sulfated CCR8 N-terminal peptide pm3
T7 sequence (peptide, as listed by the source): as above
Summary of the method: as §1

[12] = target: T8, pm6 (Y16 and Y17 sulfated; Y15 not sulfated); test: ELISA on coated peptide [cont.]
T8 construct: also called sulfated CCR8 N-terminal peptide pm6
T8 sequence (peptide, as listed by the source): as above
Summary of the method: as §1

[13] = target: T9, pm2 (sulfated tyrosine(s) among Y15, Y16, Y17; which ones is not told (the underlining of Table 1 is lost in the text)); test: ELISA on coated peptide [cont.]
T9 construct: also called sulfated CCR8 N-terminal peptide pm2
T9 sequence (peptide, as listed by the source): as above
Summary of the method: as §1

[14] = target: T1, human CCR8; test: cell-based or functional assay; remark: listed apart in the source
[15] = target: T1, human CCR8; test: cell-based or functional assay; remark: listed apart in the source
[16] = target: T10, human CCR8 with a SNAP-tag at the N-terminus (human, UniProt P51685 1-355, SNAP-tag labelled covalently with Lumi4-Terbium); test: cell-based or functional assay
[17] = target: T10, human CCR8 with a SNAP-tag at the …; test: HTRF Tag-lite, inhibition of hCCL1-AF647 binding to SNAP-hCCR8 on HEK-293 cells
Description: The inhibition of CCL1 binding to hCCR8 was evaluated with the Tag-Lite® technology from Cisbio (Revvity). Human CCR8 is engineered with a SNAP-tag at the N-terminus of the GPCR. hCCR8 SNAP-tag is transiently transfected on HEK-293 cell line using FuGene® (Promega, Madison, WI, USA). 48 hours after transfection, cells are labeled with the substrate Lumi4-Terbium® (Cisbio, Codolet, France) which covalently reacts with the SNAP-tag, for 1 h at 37° C. Thawed or freshly labeled cells are plated in a 384 low volume white plate (GREINER Bio-One, Courtaboeuf, France) (10000 cells/well/10 μl). […] The Kd was previously obtained in a saturation binding assay on the same cells. […] The plate is next incubated at 21° C. for 2 h. Detection of HTRF signal is performed on the multiplate reader EnVision (PerkinElmer, Waltham, MA, USA). The HTRF (665/620) ratio is calculated by EnVision software, the data exported are considered as the total binding. The specific binding is calculated then by subtracting the non-specific signal from the total binding. The Ki and IC₅₀ are calculated using the “One site-Fit Ki” and “One site-FitlogIC50” from GraphPad Prism 9 (Graphpad Software, San Diego, CA, USA), respectively.

Row | Binder | residual hCCL1 (100 nM) Gi2 response, protocol #2, mAb 0.08 µg/mL [1] [%] | residual hCCL1 (100 nM) Gi2 response, protocol #2, mAb 0.4 µg/mL [1] [%] | residual hCCL1 (100 nM) Gi2 response, protocol #2, mAb 10 µg/mL [1] [%] | residual hCCL1 (100 nM) Gi2 response, protocol #3, mAb 0.05 µg/mL [1] [%] | residual hCCL1 (100 nM) Gi2 response, protocol #3, mAb 0.5 µg/mL [1] [%] | residual hCCL1 (100 nM) Gi2 response, protocol #3, mAb 5 µg/mL [1] [%] | IC50 of CCL1-induced hCCR8 Gi2 signaling (BRET, HEK-293) [2] | IC50 [3] | extrapolated top plateau of hCCL1 curve with 5 µg/mL mAb, protocol #3 [4] | % positive cells [5] [%] | MFI fold change to isotype ctrl [5] [fold] | binding result [6] | binding result [7] | binding result [8] | binding result [9] | binding result [10] | binding result [11] | binding result [12] | binding result [13] | IC50 of CCL1-induced hCCR8 Gi2 signaling (BRET), pH 6.5 [15] | further results
1 | anti-CCR8 mAb 1-28 (antibody, human IgG1, kappa, V domains shown) VH: EVQLVESGGGLVQPTGSLRLSCAASGFTFNAYAMNWVRQAPGKGLEWVARIRSKSNDYATYYGDSVKDRFTISRDDSQSMLYLQMNNLKTEDTAMYYCVRGREAYYRYDGGYYAMDYWGQGTSVTVSS VL: DIVMTQAAPSVSVTPGESVSISCTSSKSLLHSNGNTYLYWFLQRPGQSPQLLIYRMSNLASGVPDRFSGSGSGTAFTLRISRVEAEDVGVYYCMQHREYPFTFGSGTKLEIKR |  |  |  |  |  |  |  |  |  |  |  |  |  |  |  |  |  |  |  |  | ADCC % max lysis, HUT78 targets, NK donor 1 [14]: 31%; ADCC % max lysis, HUT78 targets, NK donor 2 [14]: 26%; ADCC EC50, HUT78 targets, NK donor 1 [14]: 0.0733 nM; ADCC EC50, HUT78 targets, NK donor 2 [14]: 0.0904 nM
2 | anti-CCR8 mAb 1-3 (antibody, V domains shown, Murine hybridoma mAb) VH: KVQLQQSGPELVKPGASVKISCKTSGYTFTEYTIHWVQQIHGKSPEWIGGINPNGDTRYDQKFKGKATLTIDKSSSTAYMELRSLTSEDSAVYYCARVARFYGISPYAMDYWGQGTSVTVSS VL: DVVMTQTPLSLPVSLGDQASISCRCTQSLLHSNGDTYLHWYLQKPGQSPNLLIYKVSNRFSGVPDRFSGSGSGTDFTLKINRVEAEDLGVYFCSQSTHVPYTFGGGTNLEIK | 101 | 93 | 100 | 92 | 81 | 73 | 0.069 µg/mL and 0.462 nM | 1.29 µg/mL and 8.62 nM | 663 % of hCCL1 (100 nM) | 85.7 | 9.8 | binds | binds | binds | binds | binds | binds | binds | binds | 0.051 µg/ml and 0.34 nM | IC50 of CCL1-induced hCCR8 Gi2 signaling (BRET), pH 7.4 [15]: 0.059 µg/ml and 0.396 nM
3 | anti-CCR8 mAb 1-5 (antibody, V domains shown, Murine hybridoma mAb) VH: QVQLKESGPGLVAPSQSLSITCTVSGLSMNDYVVTWIRQPPGKGLEWLGVIWGGGNTYYNSDLKSRLSITKDNSKSQVFFKMSSLQTDDTAVYYCARRHRDYALDYWGQGISVTVSS VL: DVVMTQTPLSLPVSLGDQASISCRSSQSLVYSNGNTYLHWYLQKPGQSPKLLIYKVSNRFSGVPDRFSGSGSGTDFTLKISRVEAEDLGVYFCSQSTYVPPTFGGGTKLEIK | 99 | 97 | 97 | 99 | 84 | 75 | 0.143 µg/mL and 0.954 nM | 15.2 nM and 2.65 µg/mL | 133 % of hCCL1 (100 nM) | 85.2 | 11.9 | binds | binds | binds |  | binds | binds | binds | binds | 0.414 µg/ml and 2.76 nM | IC50 of CCL1-induced hCCR8 Gi2 signaling (BRET), pH 7.4 [15]: 0.359 µg/ml and 2.4 nM
4 | Ref #1 (antibody, human IgG1, V domains shown, Benchmark; cloned into vectors encoding heavy and light chains of human IgG1, produced in CHO; also called TPP-21360 of WO 2021/260210) VH: EVQLLESGGGLVQPGGSLRLSCAASGFTFSSYGMHWVRQAPGKGLEWVSAINWNGGSTGYADSVKGRFTISRDNSKNTLYLQMNSLRAEDTAVYYCARGHHSGYDGRFFDYWGQGTLVTVSS VL: QSVLTQPPSVSGAPGQRVTISCTGSSSNIGAGYNVHWYQQLPGTAPKLLIYTNNRRPSGVPDRFSGSKSGTSASLAISGLRSEDEADYYCAAWDASLSGWVFGGGTKLTVL |  |  |  |  |  |  | 0.101 µg/mL and 0.675 nM | 0.65 µg/mL |  | 75.1 |  |  |  |  |  |  |  |  |  |  | % hCCR8 internalization with CCL1 300 nM, mAb 1 µg/ml (HTRF) [16]: 126%; % hCCR8 internalization with CCL1 300 nM, mAb 10 µg/ml (HTRF) [16]: 111%; IC50 [17]: 0.45 µg/mL; Ki [17]: 0.23 µg/mL

Now from value to binder, other results behind:

Row | residual hCCL1 (100 nM) Gi2 response, protocol #2, mAb 0.08 µg/mL [1] [%] | residual hCCL1 (100 nM) Gi2 response, protocol #2, mAb 0.4 µg/mL [1] [%] | residual hCCL1 (100 nM) Gi2 response, protocol #2, mAb 10 µg/mL [1] [%] | residual hCCL1 (100 nM) Gi2 response, protocol #3, mAb 0.05 µg/mL [1] [%] | residual hCCL1 (100 nM) Gi2 response, protocol #3, mAb 0.5 µg/mL [1] [%] | residual hCCL1 (100 nM) Gi2 response, protocol #3, mAb 5 µg/mL [1] [%] | IC50 of CCL1-induced hCCR8 Gi2 signaling (BRET, HEK-293) [2] | IC50 [3] | extrapolated top plateau of hCCL1 curve with 5 µg/mL mAb, protocol #3 [4] | % positive cells [5] [%] | MFI fold change to isotype ctrl [5] [fold] | binding result [6] | binding result [7] | binding result [8] | binding result [9] | binding result [10] | binding result [11] | binding result [12] | binding result [13] | IC50 of CCL1-induced hCCR8 Gi2 signaling (BRET), pH 6.5 [15] | Binder | further results
5 | 52 | 68 | 53 | 76 | 62 | 59 | 0.004 µg/mL and 0.029 nM | 0.22 µg/mL and 1.46 nM | 948 % of hCCL1 (100 nM) | 77 | 9.2 | binds | binds | binds | binds | binds | binds | binds | binds |  | anti-CCR8 mAb 1-18 (antibody, V domains shown, Murine hybridoma mAb) VH: QVQVQQSGAELARPGASVKMSCKASGYTFTTYAMHWVKQRPGQGLEWIGHINPSSGYSNYNQKFKDKATLTADKSSSTAYMQLSSLTSEDSAVYYCARSEVRRGYFDVWGAGTTVTVSS VL: DIQMTQTTSSLSASLGDRVTISCRTSQDIRNYLNWYQQKPDGTVKLLISYTSRLHSGVPSRFSGSGSGTDYSLTISNLEQEDFATYFCQQGNTLPPTFGGGTRVEIK | 
6 | 79 | 38 | 17 | 102 | 64 | 47 | 0.049 µg/mL and 0.328 nM | 1.3 µg/mL and 8.71 nM | 667000 % of hCCL1 (100 nM) | 81.1 | 10.7 | binds | binds | binds | binds | binds | binds | binds | binds | 0.044 µg/ml and 0.292 nM | anti-CCR8 mAb 1-6 (antibody, V domains shown, Murine hybridoma mAb) VH: EVQLQQSGPELLKPGTSVKISCTTSGYTFSDYTLHWVKQSHGKSLEWIGGITPKNGDTRYDPRFKDKATLTIDKSSSAAYMELRSLTSEDSAVYYCARVARFYGVSPYAMDYWGQGASVTVSS VL: DVVMTQTPLSLPVSLGDQASISCRCTQSLLHSNGDTYLHWYLQKPGQSPKLLIYKVSNRFSGVPDRFSGSGSGTDFTLEITRVEAEDLGVYFCSQTTHVPYTFGGGTKLEIK | IC50 of CCL1-induced hCCR8 Gi2 signaling (BRET), pH 7.4 [15]: 0.061 µg/ml and 0.405 nM
